T1: human TIGIT on the cell surface (human, UniProt Q495A1 22-244)
T1 sequence: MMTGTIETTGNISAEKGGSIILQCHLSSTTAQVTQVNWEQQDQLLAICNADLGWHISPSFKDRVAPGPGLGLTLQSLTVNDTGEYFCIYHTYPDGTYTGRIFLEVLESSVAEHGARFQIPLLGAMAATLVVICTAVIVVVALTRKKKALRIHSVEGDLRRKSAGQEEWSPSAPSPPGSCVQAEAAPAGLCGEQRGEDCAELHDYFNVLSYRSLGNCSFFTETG

T2: human PVRL4-His (human, UniProt Q96NY8 32-349)
T2 construct: also called Nectin-4; not shown: His tag
T2 sequence (looked up): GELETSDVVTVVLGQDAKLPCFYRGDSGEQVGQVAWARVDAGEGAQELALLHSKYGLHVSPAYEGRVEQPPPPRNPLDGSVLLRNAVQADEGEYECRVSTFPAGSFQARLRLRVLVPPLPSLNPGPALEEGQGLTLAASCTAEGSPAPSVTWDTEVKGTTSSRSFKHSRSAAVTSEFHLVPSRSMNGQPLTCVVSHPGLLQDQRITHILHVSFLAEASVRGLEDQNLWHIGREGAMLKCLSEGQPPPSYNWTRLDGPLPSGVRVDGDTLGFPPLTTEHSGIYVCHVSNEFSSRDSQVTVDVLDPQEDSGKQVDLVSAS

T3: recombinant monomeric human TIGIT-His (human, UniProt Q495A1 22-141)
T3 construct: also called hTIGIT; not shown: His tag
T3 sequence: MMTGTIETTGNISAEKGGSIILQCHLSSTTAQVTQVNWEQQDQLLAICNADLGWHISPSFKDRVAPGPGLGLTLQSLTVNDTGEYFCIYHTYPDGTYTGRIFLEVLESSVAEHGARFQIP


What was measured:
[1] = biological target: T1, human TIGIT on the cell surface; test: cell-based or functional assay
[2] = biological target: T2, human PVRL4-His; test: BLI, antibody on AHC sensor, human PVRL4-His in solution
Method: The BLI analysis was performed at 30° C. using 1× kinetics buffer as assay buffer. AHC sensors were first presoaked in assay buffer for greater than 5 minutes. Antibody (5 μg/mL) was captured on the sensor for 300 seconds. Sensors were then dipped in assay buffer for 120 seconds to establish a baseline before measuring binding to human PVRL4-His protein. Sensors were then dipped into human PVRL4-His (200 nM in assay buffer) for 200 seconds to measure association. Dissociation of PVRL4 was then measured by dipping sensors into assay buffer for 200 seconds. Results were analyzed using Octet® Data Analysis Software Version 8.2.0.7.

[3] = biological target: T3, recombinant monomeric human TIGIT-His; test: MSD-SET solution equilibrium titration, monomeric antigen
Method: (§1) See Estep et al., supra, incorporated by reference in its entirety. Briefly, solution equilibrium titrations (SET) were performed in PBS+0.1% IgG-Free BSA (PBSF) with antigen (TIGIT monomer) held constant at 10-100 pM and incubated with 3- to 5-fold serial dilutions of Fab or mAbs starting at 10 pM-10 nM. Antibodies (20 nM in PBS) were coated onto standard bind MSD-ECL plates overnight at 4° C. or at room temperature for 30 min. Plates were then blocked by BSA for 30 min with shaking at 700 rpm, followed by three washes with wash buffer (PBSF+0.05% Tween 20). SET samples were applied and incubated on the plates for 150s with shaking at 700 rpm followed by one wash. Antigen captured on a plate was detected with 250 ng/mL sulfotag-labeled streptavidin in PBSF by incubation on the plate for 3 min. The plates were washed three times with wash buffer and then read on the MSD Sector Imager 2400 instrument using 1× Read Buffer T with surfactant. The percent free antigen was plotted as a function of titrated antibody in Prism and fit to a quadratic equation to extract the KD. To improve throughput, liquid handling robots were used throughout MSD-SET experiments, including SET sample preparation.

[4] = biological target: T3, recombinant monomeric human TIGIT-His; test: BLI (ForteBio), IgG on AHQ sensor, 100 nM monomeric antigen, 1:1 model
Method: (§2) Quantitative binding of antibodies to recombinant monomeric human, mouse (SEQ ID NO: 3), cynomolgus monkey TIGIT was measured using biolayer interferometry (BLI) with a FORTEBIO®. […] FORTEBIO affinity measurements were performed by loading IgGs on-line onto AHQ sensors. Sensors were equilibrated off-line in assay buffer for 30 min and then monitored on-line for 60 seconds for baseline establishment. Sensors with loaded IgGs were exposed to a single concentration of antigen (100 nM) for 3 minutes. Afterwards they were transferred to assay buffer for 3 minutes for off-rate measurement. Kinetics were analyzed using the 1:1 binding model.

[5] = biological target: T4, recombinant monomeric cynomolgus monkey TIGIT-His (cynomolgus monkey); test: as above
T4 construct: also called Cyno TIGIT His; cTIGIT; not shown: His tag
T4 sequence (chain, as listed by the source limits assumed): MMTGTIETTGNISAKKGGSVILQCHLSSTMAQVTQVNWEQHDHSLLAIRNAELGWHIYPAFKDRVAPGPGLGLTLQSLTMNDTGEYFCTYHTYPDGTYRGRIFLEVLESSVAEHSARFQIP
Method: as §2

[6] = biological target: T1, human TIGIT on the cell surface; test: flow cytometry, antibody titrated against labeled PVR-Fc binding to human TIGIT Jurkat cells
Method: (§3) Quantitative ligand blocking studies were conducted by using a cell surface TIGIT binding assay.

[7] = biological target: T1, human TIGIT on the cell surface; test: flow cytometry, antibody titrated against labeled PVRL2-Fc binding to human TIGIT Jurkat cells
Method: as §3

[8] = biological target: T3, recombinant monomeric human TIGIT-His; test: BLI (Octet QKe), antibody on AHC sensor, several concentrations of human TIGIT-His, 1:1 global fit, average
Method: A strategy of capturing anti-TIGIT antibodies on sensors following association/dissociation of monomeric TIGIT proteins was used to avoid avidity effects in the assay. The BLI analysis was performed at 29° C. using 1× kinetics buffer (ForteBio) as assay buffer. Anti-human IgG Fc capture (AHC) biosensors (ForteBio) were first presoaked in assay buffer for over five minutes. Anti-TIGIT antibody (5 μg/mL) was captured on the sensor for 300 seconds. Sensors were then dipped in assay buffer for 120 seconds to establish a baseline before measuring binding to each TIGIT protein. […] Dissociation of TIGIT was measured by dipping the sensors into assay buffer for 600, 1200, or 1800 seconds, depending on the experiment (600 seconds was only used for mouse TIGIT-His). Agitation at all steps was 1000 rpm.
Kinetic parameters were generated with Octet® Data Analysis Software Version 8.2.0.7 using reference subtraction, dissociation based inter-step correction, 1-to-1 binding model, and global fit (Rₘₐₓ unlinked by sensor).

[9] = biological target: T4, recombinant monomeric cynomolgus monkey …; test: MSD-SET solution equilibrium titration, monomeric antigen
Method: as §1

Binder | Average EC50, IL-2 production, human TIGIT Jurkat/anti-CD3 HT-1080 co-culture assay [1] | binding result [2] | Kd [3] | Kd [4] | Kd [5] | IC50 [6] | IC50 [7] | Kd [8] | koff [8] | kon [8] | Kd [9]
MAB15-IgG4 (antibody, V domains shown) VH: QVQLVQSGAEVKKPGASVKVSCKASGYTFREYYMHWVRQAPGQGLEWMGIINPSIGLTSYARKFQGRVTMTRDTSTSTVYMELSSLRSEDTAVYYCARGGRTTWIGAFDIWGQGTMVTVSS VL: EIVMTQSPATLSVSPGERATLSCRASQSVSSNLAWYQQKPGQAPRLLIYGASTRATGIPARFSGSGSGTEFTLTISSLQSEDFAVYYCQQYVVWPPLTFGGGTKVEIKR | 0.21 nM | no binding (tested: 200 nM) | 0.21 nM | 0.526 nM | 79.4 nM | 2.2 nM | 1.1 nM | 0.58 nM | 0.00066 s⁻¹ | 1.1e+06 M⁻¹ s⁻¹ | 
MAB16-IgG4 (antibody, V domains shown) VH: QVQLVQSGAEVKKPGASVKVSCKASGYTFREYYMHWVRQAPGQGLEWMGIINPSIGLTSYARKFQGRVTMTRDTSTSTVYMELSSLRSEDTAVYYCARGGRTTWIGALDIWGQGTMVTVSS VL: EIVMTQSPATLSVSPGERATLSCRASQSVSSNLAWYQQKPGQAPRLLIYGASTRATGIPARFSGSGSGTEFTLTISSLQSEDFAVYYCQQYVVWPPLTFGGGTKVEIKR | 1.11 nM | no binding (tested: 200 nM) | 0.07 nM | 0.378 nM | 70.4 nM | 2.1 nM | 1.3 nM | 1.1 nM | 0.00035 s⁻¹ | 450000 M⁻¹ s⁻¹ | 
MAB3-IgG4 (antibody, V domains shown) VH: QLQLQESGPGLVKPSETLSLTCTVSGGSISSTSHYWGWIRQPPGKGLEWIGSIYYSGSTFYNPSLKSRVTISVDTSKNQFSLKLSSVTAADTAVYYCARDANYYGSAWAFDPWGQGTLVTVSS VL: EIVLTQSPATLSLSPGERATLSCRASQSVSSYLAWYQQKPGQAPRLLIYDASNRATGIPARFSGSGSGTDFTLTISSLEPEDFAVYYCQQHFNLPTFGGGTKVEIKR | 0.33 nM | no binding (tested: 200 nM) | 0.0081 nM | 0.332 nM | 0.802 nM | 1.6 nM | 1.2 nM |  |  |  | 0.035 nM
MAB4-IgG4 (antibody, V domains shown) VH: QLQLQESGPGLVKPSETLSLTCTVSGGSISSTSHYWGWIRQPPGKGLEWIGSIYYSGSTFYNPSLKSRVTISVDTSKNQFSLKLSSVTAADTAVYYCARDANYYGGAWAFDPWGQGTLVTVSS VL: EIVLTQSPATLSLSPGERATLSCRASQSVSSYLAWYQQKPGQAPRLLIYDASNRATGIPARFSGSGSGTDFTLTISSLEPEDFAVYYCQQHFNLPTFGGGTKVEIKR | 0.34 nM | no binding (tested: 200 nM) | 0.005 nM | 0.246 nM | 0.369 nM | 1.9 nM | 1.6 nM | 0.081 nM | 6.3e-05 s⁻¹ | 700000 M⁻¹ s⁻¹ | 0.015 nM
MAB2-IgG4 (antibody, V domains shown) VH: QLQLQESGPGLVKPSETLSLTCTVSGGSISSSKYYWGWIRQPPGKGLEWIGSIYYSGSTFYNPSLKSRVTISVDTSKNQFSLKLSSVTAADTAVYYCARDANYYGSAWAFDPWGQGTLVTVSS VL: EIVLTQSPATLSLSPGERATLSCRASQSVSSYLAWYQQKPGQAPRLLIYDASNRATGIPARFSGSGSGTDFTLTISSLEPEDFAVYYCQQHFNLPTFGGGTKVEIKR | 0.31 nM | no binding (tested: 200 nM) | 0.025 nM | 0.457 nM | 1.57 nM | 2.3 nM | 1.3 nM | 0.71 nM | 0.00023 s⁻¹ | 320000 M⁻¹ s⁻¹ | 0.23 nM
MAB5-IgG4 (antibody, V domains shown) VH: QLQLQESGPGLVKPSETLSLTCTVSGGSISSTSHYWGWIRQPPGKGLEWIGSIYYSGSTFYNPSLKGRVTISVDTSKNQFSLKLSSVTAADTAVYYCARDANYYGSAWAFDPWGQGTLVTVSS VL: EIVLTQSPATLSLSPGERATLSCRASQSVSSYLAWYQQKPGQAPRLLIYDASNRATGIPARFSGSGSGTDFTLTISSLEPEDFAVYYCQQHFNLPTFGGGTKVEIKR | 0.34 nM | no binding (tested: 200 nM) | 0.0049 nM | 0.196 nM | 0.898 nM | 1.7 nM | 1.4 nM | 0.19 nM | 0.00014 s⁻¹ | 770000 M⁻¹ s⁻¹ | 0.046 nM
MAB1-IgG4 (antibody, V domains shown) VH: QLQLQESGPGLVKPSETLSLTCTVSGGSITSSSYYWGWIRQPPGKGLEWIGSIYYSGATFYNPSLKSRVTISVDTSKNQFSLKLSSVTAADTAVYYCARDANYYGSAWAFDPWGQGTLVTVSS VL: EIVLTQSPATLSLSPGERATLSCRASQSVSSYLAWYQQKPGQAPRLLIYDASNRATGIPARFSGSGSGTDFTLTISSLEPEDFAVYYCQQHFNLPTFGGGTKVEIKR | 0.22 nM | no binding (tested: 200 nM) | 0.054 nM | 0.524 nM | 2.64 nM | 2.2 nM | 1.4 nM |  |  |  | 0.32 nM

— patent publication US20170340735A1 (published 2017)
